Source: patent US20170313758A1, “Polypeptides for the Treatment of Angiogenesis or Lymphangiogenesis-Related Diseases” (INSERM (Institut National de la Sante et de la Recherche …, priority 2014, published 2017)

Assays:
[1] = molecular target: T1, EMMPRIN/VEGFR-2 interaction (Homo sapiens, UniProt P35968); experiment: Immunoprecipitation of EMMPRIN/VEGFR-2 interaction in treated cells; format: cell-based; conditions: FIG. 15
T1 construct: endogenous in cells; HMEC and M10 are the cells used in the neighbouring peptide experiments
Experimental: For immunoprecipitation, cell lysates were incubated with antibodies against targeted proteins and Protein G-sepharose beads (Sigma). Immunoprecipitated proteins were subjected to sodium dodecyl sulphate-polyacrylamide gel electrophoresis then transferred to Nitrocellulose membranes and probed with anti-EMMPRIN mAb (555961, BD-Pharmingen), anti-VEGF (C-1) mAb (Sc-7269, Santa Cruz), anti-VEGFR-2 rabbit pAb (Sc-504, Santa Cruz-) or anti-pVEGFR-2 (Tyr 1175) rabbit mAb (2478, Cell Signaling). The proteins were visualized with ECL reagent (Pierce), and their expression was normalized relative to total cell lysate protein concentration.
(§1) No effect on ERK phosphorylation could be observed when the cells were treated with PC (FIGS. 15 and 16).

ERK phosphorylation = experiment: ERK activation signalling (ERK phosphorylation) in treated cells; format: cell-based; conditions: FIG. 16
Experimental: as §1

M10 melanoma cells = experiment: Modified Boyden chamber invasion assay, M10 melanoma cells; format: cell-based, human; conditions: 500 nM, compared to control PC-treated cells, mean, FIG. 14
Experimental: Human microvascular endothelial (HMEC) cells line derived from dermal microvasculature (T. Lawley, Emory University, Atlanta, GA) were maintained in MCDB-131 medium (Gibco, Invitogen) with 10% fetal bovine serum (FBS) (Invitrogen), 2 ml glutamine (Invitrogen), 10 ng/ml endothelial growth factor (Upstate Biotechnology/Millipore), and 1 μg/ml hydrocortisone (Sigma-Aldrich). Primary melanoma M10 cells, established from patient primary nodular melanoma were maintained in RPMI medium (Gibco, Invitogen) with 10% FBS, Hepes 1 M, pyruvate Nas, and glutamine (Invitrogen). Human breast carcinoma MDA-MB-231 cells were maintained in Dulbecco's modified Eagle's medium (DMEM) (Gibco, Invitogen) with 10% FBS (Invitrogen) and 2m1 glutamine (Invitrogen). Melanoma BLM cells (American Type Culture Collection (ATCC Manassas, Va.)) were maintained in DMEM containing 4.5 g/l glucose, 10% FBS, 100 U/ml penicillin and […] streptomycin. […]
The in vitro migration (on uncoated filters) and invasion (on coated filters with matrigel, BD Bioscience) were performed using a modified Boyden chamber in 24-well plates and […] pore filter inserts (BD Bioscience). After 24h of incubation, cells were fixed, stained with crystal violet 0.5% and counted under a light microscope. […]

HMEC endothelial cells = experiment: MTT assay, proliferation of HMEC endothelial cells; format: cell-based, human; conditions: treatment for 48 h, FIG. 13
Experimental: Human microvascular endothelial (HMEC) cells line derived from dermal microvasculature (T. Lawley, Emory University, Atlanta, GA) were maintained in MCDB-131 medium (Gibco, Invitogen) with 10% fetal bovine serum (FBS) (Invitrogen), 2 ml glutamine (Invitrogen), 10 ng/ml endothelial growth factor (Upstate Biotechnology/Millipore), and 1 μg/ml hydrocortisone (Sigma-Aldrich). Primary melanoma M10 cells, established from patient primary nodular melanoma were maintained in RPMI medium (Gibco, Invitogen) with 10% FBS, Hepes 1 M, pyruvate Nas, and glutamine (Invitrogen). Human breast carcinoma MDA-MB-231 cells were maintained in Dulbecco's modified Eagle's medium (DMEM) (Gibco, Invitogen) with 10% FBS (Invitrogen) and 2m1 glutamine (Invitrogen). Melanoma BLM cells (American Type Culture Collection (ATCC Manassas, Va.)) were maintained in DMEM containing 4.5 g/l glucose, 10% FBS, 100 U/ml penicillin and […] streptomycin. HEK293T cells (ATCC) were cultured in DMEM medium (Gibco, Invitogen) supplemented with 10% FBS (Invitrogen), 100 U/ml penicillin, […] streptomycin and 2 ml glutamine (Invitrogen).
As VEGFR-2 has been implicated in regulation of endothelial cells migration/invasion and proliferation processes, we first investigated the effect of EMMPRIN inhibitor peptide (PI) on endothelial cell proliferation. […]

VEGFR-2 = molecular target: T2, VEGFR-2 (human, UniProt P35968 20-1356); experiment: VEGFR-2 immunoprecipitation, EMMPRIN western blot, transfected BLM-EMMPRIN-miRNA cells
T2 construct: Endogenous receptor of human cells (HMEC, M10, MDA-MB-231, BLM); the whole entry is named; also called KDR
Experimental: For immunoprecipitation, cell lysates were incubated with antibodies against targeted proteins and Protein G-sepharose beads (Sigma). […] The proteins were visualized with ECL reagent (Pierce), and their expression was normalized relative to total cell lysate protein concentration.

T1 sequence (P35968 20-1356): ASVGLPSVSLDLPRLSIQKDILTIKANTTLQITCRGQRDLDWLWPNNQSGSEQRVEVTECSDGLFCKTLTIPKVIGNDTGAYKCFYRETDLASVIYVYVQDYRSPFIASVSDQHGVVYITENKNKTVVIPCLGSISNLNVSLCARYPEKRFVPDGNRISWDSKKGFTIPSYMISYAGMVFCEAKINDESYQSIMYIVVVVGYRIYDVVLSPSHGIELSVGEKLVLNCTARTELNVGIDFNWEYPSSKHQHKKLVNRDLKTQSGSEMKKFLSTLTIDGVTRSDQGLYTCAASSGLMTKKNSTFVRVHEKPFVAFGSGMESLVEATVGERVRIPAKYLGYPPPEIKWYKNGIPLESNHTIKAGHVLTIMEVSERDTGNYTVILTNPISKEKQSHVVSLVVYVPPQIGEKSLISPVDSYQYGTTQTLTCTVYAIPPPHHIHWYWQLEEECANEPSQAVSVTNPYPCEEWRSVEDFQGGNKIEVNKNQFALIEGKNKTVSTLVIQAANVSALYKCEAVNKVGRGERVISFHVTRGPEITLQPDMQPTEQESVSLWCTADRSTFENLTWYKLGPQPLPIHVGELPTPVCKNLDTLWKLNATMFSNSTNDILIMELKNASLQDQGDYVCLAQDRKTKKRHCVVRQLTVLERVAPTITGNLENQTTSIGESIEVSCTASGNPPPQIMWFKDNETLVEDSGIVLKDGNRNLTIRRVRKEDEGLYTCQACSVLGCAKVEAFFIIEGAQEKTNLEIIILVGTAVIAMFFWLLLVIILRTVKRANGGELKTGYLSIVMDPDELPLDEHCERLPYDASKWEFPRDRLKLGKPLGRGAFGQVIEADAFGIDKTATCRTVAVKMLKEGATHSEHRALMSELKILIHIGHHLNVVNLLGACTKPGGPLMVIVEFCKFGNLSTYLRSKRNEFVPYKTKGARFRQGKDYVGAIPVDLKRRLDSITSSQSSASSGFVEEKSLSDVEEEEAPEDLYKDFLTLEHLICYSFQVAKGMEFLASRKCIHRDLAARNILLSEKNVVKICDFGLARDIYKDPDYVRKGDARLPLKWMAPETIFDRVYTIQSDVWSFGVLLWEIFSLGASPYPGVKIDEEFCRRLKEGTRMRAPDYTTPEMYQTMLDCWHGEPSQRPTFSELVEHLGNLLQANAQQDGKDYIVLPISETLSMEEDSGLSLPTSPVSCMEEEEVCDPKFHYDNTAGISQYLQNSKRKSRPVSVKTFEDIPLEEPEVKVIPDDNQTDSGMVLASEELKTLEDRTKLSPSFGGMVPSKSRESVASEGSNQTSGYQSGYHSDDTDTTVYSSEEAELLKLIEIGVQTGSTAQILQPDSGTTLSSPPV
T2 sequence (P35968 20-1356 limits assumed): as the sequence (P35968 20-1356) above

| binding result (VEGFR-2) | Molecule | EMMPRIN/VEGFR-2 interaction ([1]; 100 nM) | EMMPRIN/VEGFR-2 interaction ([1]; 500 nM) | ERK phosphorylation (ERK phosphorylation) | decrease in M10 cell invasion capacity (M10 melanoma cells) | inhibition of proliferation of HMEC cells (HMEC endothelial cells) |
| --- | --- | --- | --- | --- | --- | --- |
|  | PI: EMMPRIN peptide inhibitor (PI); sequence not specified in the text | able to decrease EMMPRIN/VEGFR-2 interaction | able to decrease EMMPRIN/VEGFR-2 interaction | significant decrease | 60% | approx. 50% |
| binds | EMMPRIN D136A (receptor, Full-length EMMPRIN cDNA mutant transfected into BLM-EMMPRIN-miRNA cells; also called control D136A; negative control D136A mutant) AAGTVFTTVEDLGSKILLTCSLNDSATEVTGHRWLKGGVVLKEDALPGQKTEFKVDSDDQWGEYSCVFPPEPMGTANIQLHGPPRVKAVKSSEHINEGETAMLVCKSESVPPVTAWAWYKITDSEDKALMNGSESRFFVSSSQGRSELHIENLNMEADPGQYRCNGTSSKGSDQAIITLRVCSHLAALWPFLGIVAEVLVLVTIIFIYEKRRKPEDVLDDDDAGSAPLKSSGQHQNDKGKNVRQRNSS |  |  |  |  |  |
